Measurements: paper PMC4036818
Where two headings read alike, the source gives them in different places.

Assays:
[1] = target: native SARS-CoV 3CLpro (3C-like protease, nsp5) with an n-terminal methionine (SARS-CoV (Urbani strain)) (UniProt P0C6X7); experiment: enzyme activity against enzyme concentration
[2] = target: native SARS-CoV 3CLpro (3C-like protease, nsp5) with an n-terminal methionine (SARS-CoV (Urbani strain)) (UniProt P0C6X7); experiment: enzyme activity against enzyme concentration; remark: listed apart in the source

native SARS-CoV 3CLpro (3C-like protease, nsp5) with an n-terminal methionine (from UniProt P0C6X7 3241-3544) (enzyme)
Kd [1]: 250 to 1000 nM
Kd [2]: 230 nM
